Reference: article PMC11922769

Target: T1, His-MBP-SPO11;TOP6BL-Flag (Mus musculus;Mus musculus, UniProt Q9WTK8;J3QMY9 1-396;1-579, |)
T1 sequence 1: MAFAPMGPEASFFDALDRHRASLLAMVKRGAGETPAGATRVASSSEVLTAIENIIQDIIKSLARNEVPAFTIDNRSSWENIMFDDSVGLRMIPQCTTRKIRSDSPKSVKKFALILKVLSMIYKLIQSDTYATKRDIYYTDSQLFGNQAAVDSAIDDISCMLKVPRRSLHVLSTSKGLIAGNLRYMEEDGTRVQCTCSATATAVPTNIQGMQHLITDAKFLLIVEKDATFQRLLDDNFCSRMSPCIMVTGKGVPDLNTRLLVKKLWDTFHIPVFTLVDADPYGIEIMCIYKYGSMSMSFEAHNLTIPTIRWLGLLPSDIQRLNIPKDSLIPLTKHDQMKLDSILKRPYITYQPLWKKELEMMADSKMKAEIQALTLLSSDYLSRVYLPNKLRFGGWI
T1 sequence 2: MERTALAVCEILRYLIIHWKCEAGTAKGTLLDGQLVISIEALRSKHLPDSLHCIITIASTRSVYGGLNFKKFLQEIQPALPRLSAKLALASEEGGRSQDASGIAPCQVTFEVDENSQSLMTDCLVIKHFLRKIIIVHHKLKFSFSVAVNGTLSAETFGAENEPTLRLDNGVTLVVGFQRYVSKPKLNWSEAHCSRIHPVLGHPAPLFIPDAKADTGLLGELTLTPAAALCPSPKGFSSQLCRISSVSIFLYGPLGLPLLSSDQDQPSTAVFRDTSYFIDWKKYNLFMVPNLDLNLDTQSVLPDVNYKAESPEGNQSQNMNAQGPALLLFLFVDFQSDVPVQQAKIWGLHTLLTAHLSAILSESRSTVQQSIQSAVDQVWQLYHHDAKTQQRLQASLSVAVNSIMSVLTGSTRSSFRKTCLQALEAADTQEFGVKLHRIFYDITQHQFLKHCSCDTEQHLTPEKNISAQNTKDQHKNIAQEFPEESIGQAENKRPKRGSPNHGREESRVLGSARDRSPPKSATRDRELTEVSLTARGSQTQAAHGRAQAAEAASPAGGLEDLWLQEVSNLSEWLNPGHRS
Assay: EMSA

B1: 46bp dsDNA, double 5' overhang (dsDNA)
DNA 1: TAGACGTCCTCGCATCAAGATGCTGCTGCCATCTTATATTTTCTATAC
DNA 2: TAGTATAGAAAATATAAGATGGCAGCAGCATCTTGATGCGAGGACGTC
- Kd: 20.8 ± 0.39 nM
